Assay results reported in US20240342305A1 (published 2024).

What was measured:
[1] = target: GPC3 expressed on hepatoma cells (HepG2, Huh-7, SK-Hep-1 GPC3) (human, UniProt P51654 25-554); assay: cell-based or functional assay
[2] = target: T1, His-tagged human GPC3 recombinant protein (purchased from Shanghai Rui Jin Biotech Co., Ltd.) (human, UniProt P51654 25-559, limits assumed); assay: flow cytometry of CAR T cells stained with His-tagged human GPC3 (50 ug/ml), anti-His-tag antibody and FITC secondary
T1 construct: Bought; construct not described; not shown: His tag
Protocol: Infected CTL cells were detected by flow cytometry on day 8 of culture for the expression of different chimeric antigen receptors. FACS assays were performed using His-tagged human GPC3 recombinant protein (purchased from Shanghai Rui Jin Biotech Co., Ltd.); the cells were firstly incubated with the protein (50 ug/ml) for 1 hr, washed twice with D-PBS, and Anti-His-tag antibody (1:50 dilution, purchased from Shanghai Reagent Biotechnology Co., Ltd.) was added and incubated for 1 hr and then washed twice with D-PBS and then FITC labeled goat anti-mouse secondary antibody (Shanghai Kangcheng Biotechnology Co., Ltd.), incubated for 50 min, washed with D-PBS for three times, and tested by FACS. Uninfected T lymphocytes was used as a negative control, the positive rates of virus-infected T cells expressing different chimeric antigen receptors are shown in Table 4.

[3] = target: T2, human GPC3 recombinant protein (purchased from Shanghai Rui Jin Biotechnology Co., Ltd.) (human, UniProt P51654 25-559, limits assumed); assay: SPR Biacore T200, human GPC3 amine-coupled to CM5 (305 RU), antibody as analyte, multi-cycle kinetics, 25 °C
T2 construct: Bought recombinant protein; also called huGPC3; antigen GPC3
Protocol: (§1) To quantitatively analyze the binding of antibody Y035 to antigen human GPC3, the affinity and kinetic parameters of antibody Y035 were measured by multi-cycle kinetic assay using Biacore T200 system (from GE). Antigen human GPC3 (purchased from Shanghai Rui-Jin Biotechnology Co., Ltd.) was coupled to carboxymethyl dextran surface of sensor chip CM5 through primary amino with NHS/EDC coupling according to the manufacturer's instructions, and the final amount of the conjugated ligand was 305RU. Kinetic measurements were performed in 1×HBS-EP+working buffer at 25° C., 30 μl/min, and regeneration condition was 10 mM Glycine-HCl (pH2.5), 10 μl/min for 25 seconds. In each round of the testing cycle, antibody Y035 of a certain concentration flowed over the chip surface. The interaction between the antibody and the antigen protein human GPC3 fixed on the chip caused the change of the molecular concentration on the surface of the sensor chip which was measured according to changes in SPR Signal and expressed in resonance units (RU). Time vs resonance unit (RU) was plotted and after RU value of the reference channel without fixed antigen was subtracted, the resulting sensorgram documents the entire reaction including the binding and dissociation processes. In different cycles of kinetic assay, the concentration of antibody Y035 was 6.25 nM, 12.5 nM, 25 nM, 50 nM and 100 nM, respectively. The resulting curves were evaluated using Biacore T200 evaluation software and the affinity KD values were calculated. Using the same method, the affinity and kinetic parameters of the parental murine monoclonal antibody 5A5 prior to humanization of Y035 were also assayed. The binding data of antibodies Y035 and 5A5 to human GPC3 proteins, respectively, are summarized in Table 2, and humanized antibody Y035 binds human GPC3 protein much better than mouse 5A5 after humanization.

[4] = target: T2, human GPC3 recombinant protein …; assay: SPR Biacore T200, human GPC3 amine-coupled to CM5, antibody as analyte, multi-cycle kinetics, 25 °C
Protocol: as §1

B1: chimeric antigen receptor P7D4-BBZ (P7D4 scFv-CD8-CD137-CD3 zeta), on T cells (other)
chain: QVQLQESGGGLVQPGRSLRLSCAASGFTFSSYAMHWVRQAPGKGLEWVSAISGSGGSTYYADSVKGRFTISRDNSKNTLYLQMNSLRAEDTAVYYCAKDRRGSHADAFDVWGQGTLVTVSSGGGGSGGGGSGGGGSQSALTQPPSASGSPGQSVTISCTGTSSDVGGYNYVSWYQQYPGKAPKLLIYGNSNRPSGVPDRFSGSKSGTSASLAITGLQAEDGADYYCQSYDSSLRVVFGGGTKVTVLGTTTPAPRPPTPAPTIASQPLSLRPEACRPAAGGAVHTRGLDFACDIYIWAPLAGTCGVLLLSLVITLYCKRGRKKLLYIFKQPFMRPVQTTQEEDGCSCRFPEEEEGGCELRVKFSRSADAPAYKQGQNQLYNELNLGRREEYDVLDKRRGRDPEMGGKPRRKNPQEGLYNELQKDKMAEAYSEIGMKGERRRGKGHDGLYQGLSTATKDTYDALHMQALPPR
notes: Second generation CAR on human T cells; also called P7D4 scFv-BBZ
- Cytotoxicity (%) on HepG2 cells, effector target ratio 1:1 (LDH release, 18 h) [1]: 38.6%
- Cytotoxicity (%) on HepG2 cells, effector target ratio 1:3 (LDH release, 18 h) [1]: 13.9%
- Cytotoxicity (%) on HepG2 cells, effector target ratio 3:1 (LDH release, 18 h) [1]: 71.3%
- Cytotoxicity (%) on HuH-7 cells, effector target ratio 1:1 (LDH release, 18 h) [1]: 32.2%
- Cytotoxicity (%) on HuH-7 cells, effector target ratio 1:3 (LDH release, 18 h) [1]: 10.2%
- Cytotoxicity (%) on HuH-7 cells, effector target ratio 3:1 (LDH release, 18 h) [1]: 69.2%
- Positive rate of T cells transfection [2]: 53%

B2: chimeric antigen receptor P7D4-δZ (P7D4 scFv-CD8-CD3δzeta), on T cells (other)
chain: QVQLQESGGGLVQPGRSLRLSCAASGFTFSSYAMHWVRQAPGKGLEWVSAISGSGGSTYYADSVKGRFTISRDNSKNTLYLQMNSLRAEDTAVYYCAKDRRGSHADAFDVWGQGTLVTVSSGGGGSGGGGSGGGGSQSALTQPPSASGSPGQSVTISCTGTSSDVGGYNYVSWYQQYPGKAPKLLIYGNSNRPSGVPDRFSGSKSGTSASLAITGLQAEDGADYYCQSYDSSLRVVFGGGTKVTVLGTTTPAPRPPTPAPTIASQPLSLRPEACRPAAGGAVHTRGLDFACDIYIWAPLAGTCGVLLLSLVITRVKFSRSADAPA
notes: Chimeric antigen receptor on lentivirus-infected human T cells; negative control without ITAM; also called P7D4-8Z; P7D4 scFv-δZ
- Cytotoxicity (%) on HepG2 cells, effector target ratio 1:1 (LDH release, 18 h); signalling-dead negative control CAR [1]: 2.5%
- Cytotoxicity (%) on HepG2 cells, effector target ratio 1:3 (LDH release, 18 h); signalling-dead negative control CAR [1]: 3.2%
- Cytotoxicity (%) on HepG2 cells, effector target ratio 3:1 (LDH release, 18 h); signalling-dead negative control CAR [1]: 4.8%
- Cytotoxicity (%) on HuH-7 cells, effector target ratio 1:1 (LDH release, 18 h); signalling-dead negative control CAR [1]: 1.3%
- Cytotoxicity (%) on HuH-7 cells, effector target ratio 1:3 (LDH release, 18 h); signalling-dead negative control CAR [1]: 5.3%
- Cytotoxicity (%) on HuH-7 cells, effector target ratio 3:1 (LDH release, 18 h); signalling-dead negative control CAR [1]: 3.2%
- Positive rate of T cells transfection [2]: 59%

B3: humanized antibody Y035 (antibody, V domains shown)
VH: EVQLVQSGAEVKKPGASVKVSCKASGYTFSDYEMHWVRQAPGQGLEWMGAIHPGSGDTAYNQRFKGRVTITADKSTSTAYMELSSLRSEDTAVYYCARFYSYAYWGQGTLVTVSA
VL: DIVMTQTPLSLPVTPGEPASISCRSSQSLVHSNGNTYLQWYLQKPGQSPQLLIYKVSNRFSGVPDRFSGSGSGTDFTLKISRVEAEDVGVYYCSQSIYVPYTFGQGTKLEIKR
notes: Whole antibody expressed in 293F from vectors pIH-hu12H (heavy) and pIK-hu12L (light), purified on Protein A, detected with goat anti-human antibody
- Kd [3]: 63.4 pM
- koff [3]: 2.51e-05 s⁻¹
- kon [3]: 396000 M⁻¹ s⁻¹

B4: parental murine monoclonal antibody 5A5 (antibody, V domains shown)
VH: QVQLQQSGTELVRPGASVKLSCKALGYTFTDYEMHWVKQTPVHGLEWIGAIHPGSGDTAYNQRFKGKATLTADKSSSTAYMEYSSLTSEDSAVYYCTRFYSYAYWGQGTLVTVSA
VL: DVVMTQTPLSLPVSLGDQASISCRSSQSLVHSNGNTYLQWYLQKPGQSPKLLIYKVSNRFSGVPDRFSGRGSGTDFTLKISRVEAEDLGVYFCSQSIYVPYTFGGGTKLEIKR
notes: Mouse hybridoma antibody purified from ascites on Protein G; also called mouse 5A5
- Kd [4]: 81.9 pM
- koff [4]: 2.3e-05 s⁻¹
- kon [4]: 280000 M⁻¹ s⁻¹
